Results reported in the supplement of paper PMC7125110.
± gives the standard error. For part of these data: Variants at the floor of the assay were thinned out.

B1: glmS ribozyme (parent)
chain: AUAAAAGCGCCAGAACUACAGAAAUGUAGUUGACGAGGAGGAGGUUUAUCGAAUUUUCGGCGGAUGCCUCCAAA

Assays:
Conditions in all cases: with glucosamine-6-phosphate
glucosamine-6-phosphate [1] = variants of: B1; test: kcat; higher = faster cleavage; RNA array
Outline: (§1)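 Barcoded ribozyme variants, transcribed in situ by E. coli RNA polymerase on sequenced MiSeq chips, were followed via a hybridised Cy3 probe at 37 °C. Glucosamine-6-phosphate ranged from 40 μM to 10 mM in HEPES/KCl/Mg(OAc)2 buffer. kobs came from decay fits to per-tile medians, and kcat and KM from weighted Michaelis–Menten fits.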

glucosamine-6-phosphate [2] = variants of: B1; test: self-cleavage kobs at 640 uM GlcN6P; higher = faster cleavage; RNA array
Outline: as §1

glucosamine-6-phosphate [3] = variants of: B1; test: KM; higher = weaker cofactor use; RNA array
Outline: as §1

glucosamine-6-phosphate [4] = variants of: B1; test: self-cleavage kobs at 2500 uM GlcN6P; higher = faster cleavage; RNA array
Outline: as §1

glucosamine-6-phosphate [5] = variants of: B1; test: self-cleavage kobs at 10000 uM GlcN6P; higher = faster cleavage; RNA array
Outline: as §1

glucosamine-6-phosphate [6] = variants of: B1; test: self-cleavage kobs at 40 uM GlcN6P; higher = faster cleavage; RNA array
Outline: as §1

glucosamine-6-phosphate [7] = variants of: B1; test: self-cleavage kobs at 160 uM GlcN6P; higher = faster cleavage; RNA array
Outline: as §1

| Variant | kcat (glucosamine-6-phosphate [1]) [s⁻¹] | self-cleavage kobs at 640 uM GlcN6P (glucosamine-6-phosphate [2]) [s⁻¹] | KM (glucosamine-6-phosphate [3]) [µM] | self-cleavage kobs at 2500 uM GlcN6P (glucosamine-6-phosphate [4]) [s⁻¹] | self-cleavage kobs at 10000 uM GlcN6P (glucosamine-6-phosphate [5]) [s⁻¹] | self-cleavage kobs at 40 uM GlcN6P (glucosamine-6-phosphate [6]) [s⁻¹] | self-cleavage kobs at 160 uM GlcN6P (glucosamine-6-phosphate [7]) [s⁻¹] |
| --- | --- | --- | --- | --- | --- | --- | --- |
| C50U C61A C68U | 2.59e-05 ± 6.9e-06 | – | – | – | – | – | – |
| U49A C71U | 1.56e-05 ± 3.2e-06 | < 1e-05 | – | – | – | – | – |
| U47C C68G | 6.88e-05 ± 2.3e-06 | 3.62e-05 ± 7.3e-06 | 573 ± 80 | 5.33e-05 ± 1.1e-05 | 6.6e-05 ± 7.8e-06 | – | – |
| U46G G66A C70G | 0.000845 ± 0.00032 | 0.000267 ± 6.1e-05 | – | 0.00046 ± 0.00016 | 0.000907 ± 0.00016 | 6.36e-05 ± 1.7e-05 | – |
| A48U U69G | 5.22e-05 ± 2.1e-05 | – | – | 7.45e-05 ± 1.7e-05 | – | – | – |
| U47A U55C | 0.0198 ± 0.0084 | 0.00441 ± 0.0013 | – | 0.0089 ± 0.0023 | 0.024 ± 0.0055 | 0.000537 ± 8.5e-05 | 0.00116 ± 0.00033 |
| C50U C68A C71U | 2.67e-05 ± 9.8e-06 | – | – | – | – | – | – |
| U47G U49G | 8.66e-05 ± 9.3e-06 | – | – | – | 8.15e-05 ± 1.2e-05 | – | – |
| A48U U55A | 0.000475 ± 0.0001 | 0.000183 ± 2.7e-05 | 1310 ± 530 | 0.000269 ± 3.9e-05 | 0.000532 ± 0.0001 | – | 4.63e-05 ± 1.3e-05 |
| C50G U54A | 3.07e-05 ± 1e-05 | – | – | 5.55e-05 ± 2.3e-05 | – | 2.88e-05 ± 1.2e-05 | 5.21e-05 ± 1.6e-05 |
| U49G U69A | 4.14e-05 ± 1.7e-05 | – | – | 8.22e-05 ± 2.2e-05 | – | – | – |
| U49G U69G | 6.03e-05 ± 2.8e-05 | 9.69e-05 ± 3.4e-05 | – | 9.67e-05 ± 2.8e-05 | – | – | – |
| C50A A64G | 1.03e-05 ± 2.3e-07 | – | 106 ± 36 | – | – | – | – |
| U47G C50A C67U | 4.13e-05 ± 1.8e-05 | 6.02e-05 ± 2.6e-05 | – | 7.44e-05 ± 3.1e-05 | – | – | – |
| A48U A64U | 0.000129 ± 1.1e-05 | – | 5510 ± 1000 | 4.13e-05 ± 1.2e-05 | 8.33e-05 ± 1.3e-05 | – | – |
| U47A C70A | 0.000263 ± 6.7e-05 | 0.000122 ± 1.9e-05 | 858 ± 410 | 0.000186 ± 3.4e-05 | – | – | 3.52e-05 ± 1.2e-05 |
| U46G G66U | 0.000756 ± 0.00014 | 0.000177 ± 2.9e-05 | 2360 ± 740 | 0.000448 ± 8e-05 | 0.000578 ± 8.8e-05 | – | 3.38e-05 ± 1.2e-05 |
| U47C G63A | < 1e-05 | < 1e-05 | – | – | – | – | – |
| U49G U56C | 0.000112 ± 1.1e-05 | 7.28e-05 ± 2.5e-05 | – | 0.000127 ± 2.5e-05 | 0.000103 ± 1.2e-05 | – | – |
| U49G U56A | 0.000478 ± 0.00021 | 0.000105 ± 1.9e-05 | – | 0.000173 ± 4.1e-05 | 0.000466 ± 9.5e-05 | – | – |
| C50G G59C | 4e-05 ± 1.5e-05 | – | – | 5.58e-05 ± 2.3e-05 | – | – | 6.56e-05 ± 3.2e-05 |

| Variant | kcat (glucosamine-6-phosphate [1]) [s⁻¹] | self-cleavage kobs at 640 uM GlcN6P (glucosamine-6-phosphate [2]) [s⁻¹] | KM (glucosamine-6-phosphate [3]) [µM] | self-cleavage kobs at 2500 uM GlcN6P (glucosamine-6-phosphate [4]) [s⁻¹] | self-cleavage kobs at 10000 uM GlcN6P (glucosamine-6-phosphate [5]) [s⁻¹] | self-cleavage kobs at 40 uM GlcN6P (glucosamine-6-phosphate [6]) [s⁻¹] | self-cleavage kobs at 160 uM GlcN6P (glucosamine-6-phosphate [7]) [s⁻¹] |
| --- | --- | --- | --- | --- | --- | --- | --- |
| A48G C70U | 0.000237 ± 3.3e-05 | 5.39e-05 ± 1.1e-05 | 1840 ± 620 | 0.000179 ± 2.8e-05 | 0.000192 ± 2.1e-05 | – | – |
| A48G C70A | 4.63e-05 ± 4.7e-06 | – | – | 4.55e-05 ± 1.2e-05 | 4.22e-05 ± 6.5e-06 | – | – |
| A48G U57C C61A | < 1e-05 | – | – | < 1e-05 | – | – | – |
| U49G C70A | 1.52e-05 ± 2.5e-06 | – | – | – | – | – | – |
| C50U A64C | < 1e-05 | < 1e-05 | – | – | < 1e-05 | – | < 1e-05 |
| C50G G63C | 2.84e-05 ± 1.1e-05 | – | – | – | – | – | 3.67e-05 ± 1.6e-05 |
| U47C C67G | 0.000337 ± 4.8e-05 | 8.28e-05 ± 9.1e-06 | 1740 ± 450 | 0.000239 ± 3.4e-05 | 0.000279 ± 3.1e-05 | – | 3.84e-05 ± 8.3e-06 |
| U47G C71G | 0.00028 ± 1.5e-05 | 0.000146 ± 1.7e-05 | 685 ± 85 | 0.000205 ± 2.8e-05 | 0.000265 ± 2.4e-05 | – | 5.19e-05 ± 7.8e-06 |
| C50A C71A | 1.53e-05 ± 3.9e-06 | – | – | – | – | – | – |
| C50A C71G | 1.89e-05 ± 5.7e-06 | – | – | – | – | – | – |
| C50A C67A | 2.1e-05 ± 4.7e-06 | – | – | – | – | – | – |
| U46G G59U | < 1e-05 | < 1e-05 | – | – | – | < 1e-05 | – |
| U47A C68U | 0.00394 ± 0.0013 | 0.00068 ± 0.00012 | 3290 ± 1500 | 0.00129 ± 0.00025 | 0.00346 ± 0.00049 | 7.13e-05 ± 1.3e-05 | 0.000161 ± 3.2e-05 |
| U47A C71G | 0.000753 ± 9.5e-05 | 0.000227 ± 5.2e-05 | 1130 ± 300 | 0.00055 ± 0.00011 | 0.000682 ± 9.3e-05 | 2.61e-05 ± 8.5e-06 | 0.000142 ± 4.2e-05 |
| C50A U55G | 2.27e-05 ± 2.2e-06 | – | – | – | – | – | – |
| U49G A52U | 1.85e-05 ± 1.5e-06 | – | 2320 ± 910 | – | – | – | < 1e-05 |
| U47C G66U | 2.83e-05 ± 1.3e-05 | – | – | – | – | < 1e-05 | – |
| U47C G66A | 0.00207 ± 0.00059 | 0.000815 ± 0.0002 | 1050 ± 470 | 0.00159 ± 0.00037 | 0.00183 ± 0.0004 | 0.000111 ± 2.1e-05 | 0.00017 ± 6.1e-05 |
| C50U G59A | < 1e-05 | – | – | < 1e-05 | < 1e-05 | < 1e-05 | < 1e-05 |
| U49G C71A | 0.000155 ± 8.2e-06 | 5.22e-05 ± 1.8e-05 | 1460 ± 260 | 8.83e-05 ± 2.5e-05 | 0.000137 ± 1.9e-05 | – | – |
